The results in this text go back to patent US20150151000A1 (INDIANA UNIVERSITY RESEARCH AND TECHNOLOGY, published 2015).

In experiment [1] the target is T1, CRMP2-His (recombinant collapsin response mediator protein 2, NT647-labeled).
T1 construct: Purified on Talon resin and labeled with NT647 for microscale thermophoresis; also called recombinant CRMP2; NT647-labeled CRMP2
In words: microscale thermophoresis, NT647-labeled CRMP2 constant, peptide titrated 0 to 5 µM, Hill fit.

For experiment [2], the target named is CRMP2 (endogenous, rat brain synaptosomes, rat brain lysates and rat dorsal root ganglia lysates) (rat, UniProt P47942 1-572). In words: SPOTS peptide array overlaid with rat brain synaptosome fraction, anti-CRMP2 far-Western.

B1: L1 peptide (CaV2.2[388-402]) (peptide)
peptide: YLEWIFKAEEVMLAE
notes: 15-mer from the first intracellular loop of CaV2.2; It was immobilised as a spot in the SPOTS array and used as a synthetic peptide in MST; also called L1 (CaV2.2); [388-402]; L1
In the case of B1, the equilibrium dissociation constant (Kd) in experiment [1] came out at 3120 nM. Also, the binding result in experiment [2] is recorded as “binds”.

B2: Ct-dis peptide (CaV1.2[2014-2028]) (peptide)
peptide: NSSFPSIHCSSWSEE
notes: also called Ct-Dis (CaV1.2 (L)); [2014-2028]; Ct-dis
As for B2, in experiment [1], the Kd stood at 640 nM. The binding result in experiment [2] was “binds”.

B3: L1 (CaV1.2) peptide (peptide)
peptide: YLDWITQAEDIDPEN
notes: Immobilised 15-mer spot; also called L1 peptide of L (CaV1.2)-type channel
With B3, the binding result in experiment [2] is on record as “binds”.

B4: L1 (CaV2.1) peptide (peptide)
peptide: YMEWISKAEEVILAE
notes: Immobilised 15-mer spot; also called L1 peptide of P/Q (CaV2.1)-type channel
As to B4, the binding result in experiment [2] is listed as “binds”.

B5: L1 (CaV2.3) peptide (peptide)
peptide: YRAWIDKAEEVMLAE
notes: Immobilised 15-mer spot; also called L1 peptide of R (CaV2.3)-type channel
In the case of B5, the binding result in experiment [2] is reported as “binds”.
